# Reference: publication PMC4006906 (PLoS Pathogens, 2014)
# B1: CR6261 scFv (wild type) (scFv, V domains shown)
# VH: EVQLVESGAEVKKPGSSVKVSCKASGGPFRSYAISWVRQAPGQGPEWMGGIIPIFGTTKYAPKFQGRVTITADDFAGTVYMELSSLRSEDTAMYYCAKHMGYQVRETMDVWGKGTTVTVSS
# VL: QSVLTQPPSVSAAPGQKVTISCSGSSSNIGNDYVSWYQQLPGTAPKLLIYDNNKRPSGIPDRFSGSKSGTSATLGITGLQTGDEANYYCATWDRRPTAYVVFGGGTKLTVL
# Molecular target: H5VN04 trimeric HA (recombinant hemagglutinin) (Influenza A virus A/Vietnam/1203/2004 …, strain)
# Assay: SPR
# Details: both partners purified
binder,measurement,value
B1,binding result,binds
